# What was measured:
# Assay in all cases: holdup assay
# Set-up in all cases: key: below the threshold = too weak to quantify, mostly under pKd 3.1 to 4
# Conditions in all cases: plain residues with an end cap or a label only (N-terminal biotin on a linker: ado-ado)
# AHNAK1, Q09666 = target: AHNAK1, Q09666
# APBA1_1, Q02410 = target: T1, APBA1_1, Q02410
# T1 sequence (Q02410 651-752, limits assumed, looked up): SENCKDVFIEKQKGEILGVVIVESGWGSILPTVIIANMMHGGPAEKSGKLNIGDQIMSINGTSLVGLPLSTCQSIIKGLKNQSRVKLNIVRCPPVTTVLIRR
# APBA1_2, Q02410 = target: T2, APBA1_2, Q02410
# T2 sequence (Q02410 742-832, limits assumed, looked up): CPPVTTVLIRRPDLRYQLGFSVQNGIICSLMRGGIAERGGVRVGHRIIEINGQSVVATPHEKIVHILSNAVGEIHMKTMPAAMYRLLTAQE
# DFNB31_2, Q9P202 = target: T3, DFNB31_2, Q9P202
# T3 sequence (Q9P202 274-371, limits assumed, looked up): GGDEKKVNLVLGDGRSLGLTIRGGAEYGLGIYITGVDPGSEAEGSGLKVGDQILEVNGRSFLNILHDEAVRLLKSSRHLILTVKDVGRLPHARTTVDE
# DLG1_2, Q12959 = target: DLG1_2, Q12959
# DLG1_3, Q12959 = target: DLG1_3, Q12959
# DLG3_3, Q92796 = target: T4, DLG3_3, Q92796
# T4 sequence (Q92796 374-475, limits assumed, looked up): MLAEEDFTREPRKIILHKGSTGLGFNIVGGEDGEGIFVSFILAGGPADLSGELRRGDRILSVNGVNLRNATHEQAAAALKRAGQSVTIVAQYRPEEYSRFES
# FRMPD2_3, Q68DX3 = target: FRMPD2_3, Q68DX3
# GRIP1_4, Q9Y3R0 = target: T5, GRIP1_4, Q9Y3R0
# T5 sequence (Q9Y3R0 467-571, limits assumed, looked up): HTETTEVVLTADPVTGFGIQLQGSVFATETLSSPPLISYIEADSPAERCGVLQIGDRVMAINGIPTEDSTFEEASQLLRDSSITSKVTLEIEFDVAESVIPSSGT
# GRIP1_7, Q9Y3R0 = target: T6, GRIP1_7, Q9Y3R0
# T6 sequence (Q9Y3R0 999-1096, limits assumed, looked up): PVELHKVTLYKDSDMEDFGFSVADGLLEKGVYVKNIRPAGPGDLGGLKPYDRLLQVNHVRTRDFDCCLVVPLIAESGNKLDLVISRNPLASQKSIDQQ
# HTRA2, O43464 = target: HTRA2, O43464
# Inadl_2, Q8NI35 = target: Inadl_2, Q8NI35
# Inadl_3, Q8NI35 = target: Inadl_3, Q8NI35
# Inadl_5, Q8NI35 = target: Inadl_5, Q8NI35
# Inadl_6, Q8NI35 = target: Inadl_6, Q8NI35
# LNX1_2, Q8TBB1 = target: LNX1_2, Q8TBB1
# LNX1_3, Q8TBB1 = target: LNX1_3, Q8TBB1
# MAGI3_2, Q5TCQ9 = target: MAGI3_2, Q5TCQ9
# MPP7, Q5T2T1 = target: T7, MPP7, Q5T2T1
# T7 sequence (Q5T2T1 134-230, limits assumed, looked up): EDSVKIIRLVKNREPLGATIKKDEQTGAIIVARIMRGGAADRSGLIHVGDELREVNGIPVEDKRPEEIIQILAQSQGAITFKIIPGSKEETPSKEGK
# NHERF3_4, Q5T2W1 = target: T8, NHERF3_4, Q5T2W1
# T8 sequence (Q5T2W1 373-468, limits assumed, looked up): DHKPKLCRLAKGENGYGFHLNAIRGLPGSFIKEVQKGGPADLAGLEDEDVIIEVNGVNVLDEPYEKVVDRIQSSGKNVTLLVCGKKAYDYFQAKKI
# PDZD2_2, O15018 = target: T9, PDZD2_2, O15018
# T9 sequence (O15018 329-429, limits assumed, looked up): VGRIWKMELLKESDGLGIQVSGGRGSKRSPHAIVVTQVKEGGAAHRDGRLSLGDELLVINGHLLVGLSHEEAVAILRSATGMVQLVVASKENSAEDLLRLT
# RADIL, Q96JH8 = target: T10, RADIL, Q96JH8
# T10 sequence (Q96JH8 971-1071, limits assumed, looked up): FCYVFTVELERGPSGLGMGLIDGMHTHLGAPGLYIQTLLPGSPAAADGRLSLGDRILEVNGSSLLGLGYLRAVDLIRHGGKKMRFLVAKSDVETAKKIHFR
# SCRIB_2, Q14160 = target: SCRIB_2, Q14160
# SNTG2, Q9NY99 = target: T11, SNTG2, Q9NY99
# T11 sequence (Q9NY99 68-166, limits assumed, looked up): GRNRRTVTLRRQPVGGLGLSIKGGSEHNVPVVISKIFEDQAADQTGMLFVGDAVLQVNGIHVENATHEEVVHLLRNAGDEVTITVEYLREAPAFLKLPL
# SNX27, Q96L92 = target: SNX27, Q96L92
# TJP1_2, Q07157 = target: TJP1_2, Q07157
# TJP1_3, Q07157 = target: TJP1_3, Q07157
# Sequence of TJP1_3, Q07157 (Q07157 416-512): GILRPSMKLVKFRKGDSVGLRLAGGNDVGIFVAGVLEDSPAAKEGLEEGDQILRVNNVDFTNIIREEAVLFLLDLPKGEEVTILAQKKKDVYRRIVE
# Sequence of DLG1_3, Q12959 (Q12959 457-571): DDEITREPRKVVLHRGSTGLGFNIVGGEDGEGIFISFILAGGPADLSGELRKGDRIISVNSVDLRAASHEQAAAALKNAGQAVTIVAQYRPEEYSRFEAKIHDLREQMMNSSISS
# Sequence of MAGI3_2, Q5TCQ9 (Q5TCQ9 398-503): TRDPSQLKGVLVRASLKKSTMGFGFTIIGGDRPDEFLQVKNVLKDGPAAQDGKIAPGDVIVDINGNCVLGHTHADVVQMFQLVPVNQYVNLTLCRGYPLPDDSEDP
# Sequence of Inadl_3, Q8NI35 (Q8NI35 359-469): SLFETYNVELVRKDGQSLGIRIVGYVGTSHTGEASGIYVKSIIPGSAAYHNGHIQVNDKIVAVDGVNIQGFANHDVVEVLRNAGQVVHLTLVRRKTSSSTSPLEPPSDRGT
# Sequence of Inadl_5, Q8NI35 (Q8NI35 673-780): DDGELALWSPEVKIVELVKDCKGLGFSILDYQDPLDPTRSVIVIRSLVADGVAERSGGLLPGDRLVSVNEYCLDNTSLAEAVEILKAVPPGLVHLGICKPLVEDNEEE
# Sequence of HTRA2, O43464 (O43464 355-458): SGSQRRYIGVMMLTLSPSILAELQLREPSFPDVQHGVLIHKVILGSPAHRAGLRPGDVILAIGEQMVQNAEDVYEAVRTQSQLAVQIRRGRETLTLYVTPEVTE
# Sequence of AHNAK1, Q09666 (Q09666 4-100): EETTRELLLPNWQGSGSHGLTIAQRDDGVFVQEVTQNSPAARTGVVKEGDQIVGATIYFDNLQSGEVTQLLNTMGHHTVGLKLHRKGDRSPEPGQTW
# Sequence of TJP1_2, Q07157 (Q07157 181-274): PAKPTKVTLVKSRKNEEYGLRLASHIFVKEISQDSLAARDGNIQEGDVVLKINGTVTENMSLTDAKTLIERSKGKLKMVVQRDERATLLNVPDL
# Sequence of FRMPD2_3, Q68DX3 (Q68DX3 1073-1166): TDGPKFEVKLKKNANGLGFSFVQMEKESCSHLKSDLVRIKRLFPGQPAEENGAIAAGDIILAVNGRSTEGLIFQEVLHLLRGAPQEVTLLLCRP
# Sequence of SCRIB_2, Q14160 (Q14160 857-960): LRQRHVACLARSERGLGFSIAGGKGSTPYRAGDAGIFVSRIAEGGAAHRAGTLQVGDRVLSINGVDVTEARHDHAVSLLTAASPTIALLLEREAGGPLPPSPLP
# Sequence of DLG1_2, Q12959 (Q12959 314-412): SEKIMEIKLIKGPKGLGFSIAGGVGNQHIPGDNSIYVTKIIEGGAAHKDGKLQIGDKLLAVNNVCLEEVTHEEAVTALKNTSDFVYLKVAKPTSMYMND
# Sequence of LNX1_2, Q8TBB1 (Q8TBB1 371-470): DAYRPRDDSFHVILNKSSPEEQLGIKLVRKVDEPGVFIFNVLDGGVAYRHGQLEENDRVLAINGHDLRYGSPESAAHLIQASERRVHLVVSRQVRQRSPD
# Sequence of Inadl_2, Q8NI35 (Q8NI35 238-335): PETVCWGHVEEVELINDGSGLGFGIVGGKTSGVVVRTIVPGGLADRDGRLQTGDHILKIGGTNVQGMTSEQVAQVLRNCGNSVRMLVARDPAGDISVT
# Sequence of Inadl_6, Q8NI35 (Q8NI35 1058-1167): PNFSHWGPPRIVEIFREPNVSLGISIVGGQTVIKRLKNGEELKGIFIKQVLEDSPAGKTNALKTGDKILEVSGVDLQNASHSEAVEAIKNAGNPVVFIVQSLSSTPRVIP
# Sequence of LNX1_3, Q8TBB1 (Q8TBB1 500-596): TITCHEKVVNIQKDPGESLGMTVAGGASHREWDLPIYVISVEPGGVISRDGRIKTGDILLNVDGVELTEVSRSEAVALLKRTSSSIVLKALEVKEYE
Binder,"pKd (AHNAK1, Q09666)","pKd (APBA1_1, Q02410)","pKd (APBA1_2, Q02410)","pKd (DFNB31_2, Q9P202)","pKd (DLG1_2, Q12959)","pKd (DLG3_3, Q92796)","pKd (FRMPD2_3, Q68DX3)","pKd (GRIP1_4, Q9Y3R0)","pKd (GRIP1_7, Q9Y3R0)","pKd (HTRA2, O43464)","pKd (Inadl_2, Q8NI35)","pKd (Inadl_3, Q8NI35)","pKd (Inadl_5, Q8NI35)","pKd (Inadl_6, Q8NI35)","pKd (LNX1_2, Q8TBB1)","pKd (LNX1_3, Q8TBB1)","pKd (MAGI3_2, Q5TCQ9)","pKd (MPP7, Q5T2T1)","pKd (NHERF3_4, Q5T2W1)","pKd (PDZD2_2, O15018)",other results
"LRYARPADAL [PPP1R3G, B7ZBB8]",below the threshold,below the threshold,3.82,below the threshold,3.53,below the threshold,below the threshold,below the threshold,below the threshold,below the threshold,below the threshold,below the threshold,below the threshold,below the threshold,below the threshold,below the threshold,below the threshold,below the threshold,below the threshold,below the threshold,"pKd (DLG1_3, Q12959): below the threshold; pKd (RADIL, Q96JH8): below the threshold; pKd (SCRIB_2, Q14160): below the threshold; pKd (SNTG2, Q9NY99): below the threshold; pKd (SNX27, Q96L92): 3.49; pKd (TJP1_2, Q07157): below the threshold; pKd (TJP1_3, Q07157): below the threshold"
"QELLEYETTV [XKR7, Q5GH72]",below the threshold,below the threshold,3.65,below the threshold,5.14,3.88,3.63,below the threshold,below the threshold,below the threshold,below the threshold,4.63,3.55,4.01,3.73,below the threshold,4.44,below the threshold,below the threshold,5.17,"pKd (DLG1_3, Q12959): 4.09; pKd (RADIL, Q96JH8): 4.73; pKd (SCRIB_2, Q14160): 4.42; pKd (SNTG2, Q9NY99): 4.69; pKd (SNX27, Q96L92): 5.77; pKd (TJP1_2, Q07157): below the threshold; pKd (TJP1_3, Q07157): below the threshold"
"EYRKDNKVAA [LSM14A, Q8ND56;Q8ND56-2]",below the threshold,below the threshold,below the threshold,below the threshold,below the threshold,below the threshold,below the threshold,below the threshold,below the threshold,below the threshold,below the threshold,below the threshold,below the threshold,below the threshold,below the threshold,below the threshold,below the threshold,below the threshold,below the threshold,below the threshold,"pKd (RADIL, Q96JH8): below the threshold; pKd (SCRIB_2, Q14160): below the threshold; pKd (SNTG2, Q9NY99): below the threshold; pKd (SNX27, Q96L92): below the threshold; pKd (TJP1_2, Q07157): below the threshold"
"GDHLDRRVVL [VAC14, Q08AM6]",below the threshold,below the threshold,below the threshold,3.51,3.98,below the threshold,below the threshold,below the threshold,below the threshold,3.48,below the threshold,below the threshold,3.48,below the threshold,below the threshold,below the threshold,below the threshold,below the threshold,below the threshold,below the threshold,"pKd (DLG1_3, Q12959): below the threshold; pKd (RADIL, Q96JH8): 3.52; pKd (SCRIB_2, Q14160): 3.64; pKd (SNTG2, Q9NY99): below the threshold; pKd (SNX27, Q96L92): below the threshold; pKd (TJP1_2, Q07157): below the threshold; pKd (TJP1_3, Q07157): below the threshold"
"SKSLERATQL [COMMD3, Q9UBI1]",below the threshold,below the threshold,4.16,below the threshold,3.92,3.74,3.49,below the threshold,3.51,below the threshold,below the threshold,below the threshold,below the threshold,3.57,below the threshold,below the threshold,3.75,below the threshold,4.67,3.95,"pKd (DLG1_3, Q12959): 3.97; pKd (RADIL, Q96JH8): 3.63; pKd (SCRIB_2, Q14160): 3.55; pKd (SNTG2, Q9NY99): below the threshold; pKd (SNX27, Q96L92): 4.25; pKd (TJP1_2, Q07157): 3.51; pKd (TJP1_3, Q07157): 3.51"

# Source: PMC9482650, “Quantitative fragmentomics allow affinity mapping of interactomes” (Nature Communications, 2022)
